Measured values from IntAct's records for PubMed 19197237.

B1: Peroxisomal membrane protein PEX14 (Homo sapiens), O75381 (parent)
chain: MASSEQAEQPSQPSSTPGSENVLPREPLIATAVKFLQNSRVRQSPLATRRAFLKKKGLTDEEIDMAFQQSGTAADEPSSLGPATQVVPVQPPHLISQPYSPAGSRWRDYGALAIIMAGIAFGFHQLYKKYLLPLILGGREDRKQLERMEAGLSELSGSVAQTVTQLQTTLASVQELLIQQQQKIQELAHELAAAKATTSTNWILESQNINELKSEINSLKGLLLNRRQFPPSPSAPKIPSWQIPVKSPSPSSPAAVNHHSSSDISPVSNESTSSSPGKEGHSPEGSTVTYHLLGPQEEGEGVVDVKGQVRMEVQGEEEKREDKEDEEDEEDDDVSHVDEEDCLGVQREDRRGGDGQINEQVEKLRRPEGASNESERD
partner: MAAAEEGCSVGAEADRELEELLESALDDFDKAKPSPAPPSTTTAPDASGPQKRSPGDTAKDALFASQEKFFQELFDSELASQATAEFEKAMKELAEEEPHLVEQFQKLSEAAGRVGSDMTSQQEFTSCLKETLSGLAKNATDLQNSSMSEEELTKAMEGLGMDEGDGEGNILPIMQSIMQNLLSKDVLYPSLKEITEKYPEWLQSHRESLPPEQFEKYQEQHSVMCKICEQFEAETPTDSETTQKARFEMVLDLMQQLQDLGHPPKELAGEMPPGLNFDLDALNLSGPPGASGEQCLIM
B2: Peroxisomal biogenesis factor 19 (Homo sapiens), P40855 (parent)
chain: B1 partner

Variants of: B1
Settings: with pex19_human PEX19, P40855

effect of a mutation on the interaction | Variant
decreasing interaction | MASSEQAEQPSQPSSTPGSENVLPREPLIATAVKFLQNSRVRQSPLATERAFLKKKGLTDEEIDMAFQQSGTAADEPSSLGPATQVVPVQPPHLISQPYSPAGSRWRDYGALAIIMAGIAFGFHQLYKKYLLPLILGGREDRKQLERMEAGLSELSGSVAQTVTQLQTTLASVQELLIQQQQKIQELAHELAAAKATTSTNWILESQNINELKSEINSLKGLLLNRRQFPPSPSAPKIPSWQIPVKSPSPSSPAAVNHHSSSDISPVSNESTSSSPGKEGHSPEGSTVTYHLLGPQEEGEGVVDVKGQVRMEVQGEEEKREDKEDEEDEEDDDVSHVDEEDCLGVQREDRRGGDGQINEQVEKLRRPEGASNESERD [R49E]

Variants of: B1
Settings: with pex19_human PEX19, P40855
Remark: another data set of the same source

effect of a mutation on the interaction | Variant
decreasing interaction | MASSEQAEQPSQPSSTPGSENVLPREPLIATAVKFLQNSRVRQSPLATRRAFLKKEGLTDEEIDMAFQQSGTAADEPSSLGPATQVVPVQPPHLISQPYSPAGSRWRDYGALAIIMAGIAFGFHQLYKKYLLPLILGGREDRKQLERMEAGLSELSGSVAQTVTQLQTTLASVQELLIQQQQKIQELAHELAAAKATTSTNWILESQNINELKSEINSLKGLLLNRRQFPPSPSAPKIPSWQIPVKSPSPSSPAAVNHHSSSDISPVSNESTSSSPGKEGHSPEGSTVTYHLLGPQEEGEGVVDVKGQVRMEVQGEEEKREDKEDEEDEEDDDVSHVDEEDCLGVQREDRRGGDGQINEQVEKLRRPEGASNESERD [K56E]

Variants of: B1
Settings: with pex19_human PEX19, P40855
Remark: another data set of the same source

effect of a mutation on the interaction | Variant
disrupting interaction | MASSEQAEQPSQPSSTPGSENVLPREPLIATAVKFLQNSRVRQSPLATRRAWLKKKGLTDEEIDMAFQQSGTAADEPSSLGPATQVVPVQPPHLISQPYSPAGSRWRDYGALAIIMAGIAFGFHQLYKKYLLPLILGGREDRKQLERMEAGLSELSGSVAQTVTQLQTTLASVQELLIQQQQKIQELAHELAAAKATTSTNWILESQNINELKSEINSLKGLLLNRRQFPPSPSAPKIPSWQIPVKSPSPSSPAAVNHHSSSDISPVSNESTSSSPGKEGHSPEGSTVTYHLLGPQEEGEGVVDVKGQVRMEVQGEEEKREDKEDEEDEEDDDVSHVDEEDCLGVQREDRRGGDGQINEQVEKLRRPEGASNESERD [F52W]

Variants of: B2
Settings: with pex14_human PEX14, O75381

effect of a mutation on the interaction | Variant
disrupting interaction | MAAAEEGCSVGAEADRELEELLESALDDFDKAKPSPAPPSTTTAPDASGPQKRSPGDTAKDALFASQEKFFQELADSELASQATAEFEKAMKELAEEEPHLVEQFQKLSEAAGRVGSDMTSQQEFTSCLKETLSGLAKNATDLQNSSMSEEELTKAMEGLGMDEGDGEGNILPIMQSIMQNLLSKDVLYPSLKEITEKYPEWLQSHRESLPPEQFEKYQEQHSVMCKICEQFEAETPTDSETTQKARFEMVLDLMQQLQDLGHPPKELAGEMPPGLNFDLDALNLSGPPGASGEQCLIM [F75A]

Variants of: B2
Settings: with pex14_human PEX14, O75381
Remark: another data set of the same source

effect of a mutation on the interaction | Variant
disrupting interaction | MAAAEEGCSVGAEADRELEELLESALDDFDKAKPSPAPPSTTTAPDASGPQKRSPGDTAKDALFASQEKFFQEAFDSELASQATAEFEKAMKELAEEEPHLVEQFQKLSEAAGRVGSDMTSQQEFTSCLKETLSGLAKNATDLQNSSMSEEELTKAMEGLGMDEGDGEGNILPIMQSIMQNLLSKDVLYPSLKEITEKYPEWLQSHRESLPPEQFEKYQEQHSVMCKICEQFEAETPTDSETTQKARFEMVLDLMQQLQDLGHPPKELAGEMPPGLNFDLDALNLSGPPGASGEQCLIM [L74A]

Variants of: B2
Settings: with pex14_human PEX14, O75381
Remark: another data set of the same source

effect of a mutation on the interaction | Variant
disrupting interaction | MAAAEEGCSVGAEADRELEELLESALDDFDKAKPSPAPPSTTTAPDASGPQKRSPGDTAKDALFASQEKFAQELFDSELASQATAEFEKAMKELAEEEPHLVEQFQKLSEAAGRVGSDMTSQQEFTSCLKETLSGLAKNATDLQNSSMSEEELTKAMEGLGMDEGDGEGNILPIMQSIMQNLLSKDVLYPSLKEITEKYPEWLQSHRESLPPEQFEKYQEQHSVMCKICEQFEAETPTDSETTQKARFEMVLDLMQQLQDLGHPPKELAGEMPPGLNFDLDALNLSGPPGASGEQCLIM [F71A]

Variants of: B2
Settings: with pex14_human PEX14, O75381
Remark: another data set of the same source

effect of a mutation on the interaction | Variant
disrupting interaction | MAAAEEGCSVGAEADRELEELLESALDDFDKAKPSPAPPSTTTAPDASGPQKRSPGDTAKDALFASQEKAFQELFDSELASQATAEFEKAMKELAEEEPHLVEQFQKLSEAAGRVGSDMTSQQEFTSCLKETLSGLAKNATDLQNSSMSEEELTKAMEGLGMDEGDGEGNILPIMQSIMQNLLSKDVLYPSLKEITEKYPEWLQSHRESLPPEQFEKYQEQHSVMCKICEQFEAETPTDSETTQKARFEMVLDLMQQLQDLGHPPKELAGEMPPGLNFDLDALNLSGPPGASGEQCLIM [F70A]

Variants of: B2
Settings: with pex14_human PEX14, O75381
Remark: another data set of the same source

effect of a mutation on the interaction | Variant
disrupting interaction | MAAAEEGCSVGAEADRELEELLESALDDFDKAKPSPAPPSTTTAPDASGPQKRSPGDTAKDALFASQAKFFQELFDSELASQATAEFEKAMKELAEEEPHLVEQFQKLSEAAGRVGSDMTSQQEFTSCLKETLSGLAKNATDLQNSSMSEEELTKAMEGLGMDEGDGEGNILPIMQSIMQNLLSKDVLYPSLKEITEKYPEWLQSHRESLPPEQFEKYQEQHSVMCKICEQFEAETPTDSETTQKARFEMVLDLMQQLQDLGHPPKELAGEMPPGLNFDLDALNLSGPPGASGEQCLIM [E68A]
